According to patent publication US20120322073A1 (CELGENE, published 2012):

Molecular target: T1, human CRBN protein (cereblon), full-length 51 kDa (human, UniProt Q96SW2 1-442)
T1 construct: also called human CRBN isoform 1 (NP-057386)
Test: denaturing immunoblot
Description: CGN-6-4-5 was diluted 1:10,000 dilution in 0.1% Tween PBS buffer. […] Peptide neutralization was performed by combining antibody with a five-fold (by weight) excess of blocking peptide in 500 μl PBS and incubating with constant rotation at room temperature for 2 hours.

T1 sequence (Q96SW2 whole entry, canonical isoform): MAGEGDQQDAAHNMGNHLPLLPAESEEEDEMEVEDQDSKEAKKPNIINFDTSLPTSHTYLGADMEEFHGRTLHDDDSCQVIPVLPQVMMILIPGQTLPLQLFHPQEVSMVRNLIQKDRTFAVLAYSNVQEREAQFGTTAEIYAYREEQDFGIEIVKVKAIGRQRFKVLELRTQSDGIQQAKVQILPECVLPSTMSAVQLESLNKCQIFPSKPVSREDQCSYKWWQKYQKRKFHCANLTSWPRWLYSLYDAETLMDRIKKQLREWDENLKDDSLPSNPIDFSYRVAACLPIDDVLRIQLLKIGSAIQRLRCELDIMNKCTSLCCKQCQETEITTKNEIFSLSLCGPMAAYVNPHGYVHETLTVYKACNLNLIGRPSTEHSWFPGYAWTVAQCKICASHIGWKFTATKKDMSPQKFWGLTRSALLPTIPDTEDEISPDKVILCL

- binding result: binds
B1: Rabbit monoclonal antibody CGN-6-4-5 (antibody, V domains shown)
VH: QSVEESGGRLVTPGTPLTLTCTVSGFSLSRYGVSWVRQAPGKGLEHIGYIYSDPGMTFYATWAKGRFTISKTSSTTVDLKMTSPTIEDTATYFCARGTPLASYSTWGPGTLVTISL
VL: AQVLTQTPASVSAAVGGTVTINCQSSENIYKNNYLSWFQQKPGQPPKLLIYQASTLASGVPSRFKGSGSGTRFSLTISDLECDDAATYYCAGGYSGNIFTFGGGTEVVVKG
notes: Rabbit IgG from a CGN-6 hybridoma clone of rabbits primed with residues 65-76 of human CRBN; also called monoclonal anti-CRBN antibody
